Reference: a protein production outcome set (Wang et al. 2014)

Assay: label from the status in PepcDB records
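Also: failed if final PepcDB status was selected cloned or expressed and not failed if soluble or beyond.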

| Sequence | protein production |
| --- | --- |
| MASSTRSTRSTPARGKSKGASGNVTPWLWMAFALLVVMIDQFFKVVITRSFQYGESRPITSFFNLVLVYNKGAAFSFLADAGGWQRWFFTLLGVVVGAFIIWLLYRHTGQKLFCLAVSLILGGAVGNVVDRIIHGHVIDFLDFHLRNTHFPAFNVADCAITLGAILLIVDELRRVRRH | failed |
| MASSTTSTVTDLSAALVMAPVPLADWLIILPIALCIGAGAVLMMMRHAIRHHAAVAIAALSLLVILNAALLWKVATQGPFTMVMGRWLPPFGIAFTADLTGALLSLAAAIVALAGAIHAGADIDASGRRYGFYPFLMLLMAGVTGAFLTGDLFNLYVWFEVLLISSFGLIVLGSTREQIDGALKYAILNLIGTTLFLITVGYLYAIFGTLNMADIALKATELRGTAPLMTLASLFALAFAMKAAAFPVNFWLPASYHTPRIVVSALFGGLLTKVGIYSLLRVMVMLFPVEREELSIVIAISAALTMVLGAMGALAQNDIRRMLGYIVISGIGYMMAGIAIGTPSGVSGAIFYALHSMVLMTALYLAAGHAARLGGGFSLTSLGDLYRQAPWFSALALALFFAGSGLPPFSGFWPKAVLVKSAIDIGAWWLAAAILVSGFIATIAFGRVFLLCFWRPVTTSAGQPALQPAARPPAPSVAPLVGLTLLVVFFGLFPESLLNLSQQAAAGLGNPQAYIQSVFPQGGKP | failed |
| MASSVDEEALHQLYLWVDNIPLSRPKRNLSRDFSDGVLVAEVIKFYFPKMVEMHNYVPANSLQQKLSNWGHLNRKVLKRLNFSVPDDVMRKIAQCAPGVVELVLIPLRQRLEERQRRRKQ | not failed |
| MASTIYTCKECGSDLNLNPNDLFPPDFYFEAGNKGTLSFAAVDAEKFRFEKEDKIMPFFETLNYWGIQRKRTKIKCTSCNHLIGYIYDDGPPLTGGIGQYGFGPSQVIPRAPRYRFKTKARQDGWQYGGLTAFWN | failed |
| MASTVSVQPGRIRILKKGSWQPLDQTVGPVVYWMFRDQRLKDNWALIHAVDLANRTNAPVAVVFNLFDQFLDAKARQLGFMLKGLRQLHHQIDSLQIPFFLLQGDAKETIPNFLTECGASHLVTDFSPLREIRRCKDEVVKRTSDSLAIHEVDAHNVVPMWAASSKLEYSARTIRGKINKLLPDYLIEFPKLEPPKKKWTGMMDKKLVDWDSLIDKVVREGAEVPEIEWCVPGEDAGIEVLMGNKDGFLTKRLKNYSTDRNNPIKPKALSGLSPYLHFGQVSAQRCALEARKVRSTSPQAVDTFLEELIVRRELSDNFCYYQPHYDSLKGAWEWARKSLMDHASDKREHIYSLEQLEKGLTADPLWNASQLEMVYQGKMHGFMRMYWAKKILEWTKGPEEALSISIYLNNKYEIDGRDPSGYVGCMWSICGVHDQGWKERPVFGKIRYMNYAGCKRKFNVDSYISYVKSLVSVTKKKRKAEEQLTRDSVDPKITIV | failed |
| MASVSVSHLILFIASMAIAASVAGVFTSSIGELSNAVSEQGLDVSSDVRTDVEIISDSGSDTIYDSGANTITVHVKNTGSETLAPVPGQVDVFVDGTFASDYTVTLEPNGGNSWRPGEVVRIDINDNLSGGDHRLKLIVNGDEEVFEFNT | failed |
| MASWSLRTVPPKMGRVVNCQNHITAGGGRRTLMKIILTGATGFVGCSLVPLLHQQGHELTLLVRSVSKAQRLFAPGSFPQLKAIAYEATKSGDWQKVVDGQDAVINLAGEPISERWTEAYKAEIFDSRKLGTEKLVEAIAKADRKPQVMISGSAIGYYGTSETATFTESSKPGDDFLAEVCQAWENAAHQVEQLGVRLVVFRIGIVLGADGGALAKMLPPFKLFAGGPLGSGEQWFSWIDRRDLIALIDKALTDSTLRGTYNATAPNPVKMKEFCHTLGKVLARPSWLPVPDIALELLLGEGAKLVLEGQEVLPGAISKTDFQFQAPDLETSLRQILGS | failed |
| MASYDQISKNNWRYRISLGKNAETGKYEYISKTGFKRKSDAKHQAEMIGRQLRNGDYIAPSSSTFKQVADDWLKQYANDVKVSSVRAREKAIQHAIERFNTKPIQTIKKHDYQRFVDDISAQYSKNYVDSIVASTNMIFKYAYDTRLIKAMPSEGIKRPKKKVSVEELEDIEIHKKFLEKDELFQFLKVAKYHHSPQNSFEVFTTLAYTGMRAGELLALKWSDIDFENNTISITKTYYNPNNNKKHYQILTRKTESSIGKITVDPHVIQLLKDYKVNVQDTWKNELYVDNNFVFTDVNGYPLVIKKLQLWIKAILKKTDITNKQISTHSFRYTHYALLIEAGVHIKEIQERLRHKDINTTMNIYAKITNSYKKDASQKFSKLMENVSKGLF | failed |
| MASYTLRQLKYFVTTVECGSVAEASRKLYIAQPSISTAVKGLEESFGVQLFIRHHAQGVSLTPAGARFYRKAQELLRMAHEFEQNALADNDVIAGQIDIGCFETVAPLYLPGLIAGFRQAYPGVEIRIRDGEQQELVQGLTSGRFDLAFLYEHDLDSTIETEPLMPPQRPHALLPEGHRFAGQAQVSLRDLCLEPMILLDVQPSRTYFVSLFEELGLTPNIAFSSPSIEMVRGMVGQGFGFSLLVTRPHSECTYDGKKVVMVDLAEPVSTSGLAAAWLKRAQLTKPARLFVDYCREQLGKLAERRH | not failed |
| MATAGNPWGWFLGYLILGVAGSLVSGSCSQIINGEDCSPHSQPWQAALVMENELFCSGVLVHPQWVLSAAHCFQNSYTIGLGLHSLEADQEPGSQMVEASLSVRHPEYNRPLLANDLMLIKLDESVSESDTIRSISIASQCPTAGNSCLVSGWGLLANGRMPTVLQCVNVSVVSEEVCSKLYDPLYHPSMFCAGGGQDQKDSCNGDSGGPLICNGYLQGLVSFGKAPCGQVGVPGVYTNLCKFTEWIEKTVQAS | not failed |
| MATASIAIAETPLVNYALRRGDDALVLGHRLSEWCGHAPMLEEDMALANIGLDLIGQARELFNYAAEVEGAANTEDSLAYLRDVRQYRNLLLVEQPNGDFARTMLRQLFYSAFADSYWRAMMGSSDPTLAAIAAKSEKESAYHLRHASEWVIRLGDGTEESHRRAQAAVDELWAFTGEMFQVDDGDAALIADGIAIDPERLRAGWSETVASVLARATLQQPSSSWMQKGGRAGHHSEHLGHLLSELQSLQRSFPGATW | failed |
| MATATETSKATTKTQASAAADRESLTVSRAFNAPRDLVFQAWSAAEHLKHWFCPQGFTIPECEVEFRPGGKFDLWMRSLDGNYSHWIRGHYVEIIPHSRLVLDMTVVTEAGVALFNANTSVTFETVCGGTEMSVTQRYTALDPSAGNFTRGAEEGWAQTLDRLEKEVARIAAATPARSVAHGVFTIERTYDASPELVFRALSDPVAKAQWFNGGPGYTEVKRTMDVRPGGREHLQGRWENGLVSTFDAVYFDVIPNERLVYSYEMHMGERKISVSLATFELKRAGQGTRLVMTEQGAFLDGYDDAGSREHGSGLLLDAIGEWLKAMTKR | failed |
| MATDTAERRIAHVRGVTVTAIACLAGVAAAVVSAAVADGAGDTLGLYVLVGGIIVQFPLLRVLEMAGLQLDVDDFGAKDYLYIAFMTFAMWFVCWTVLLTTGASV | failed |
| MATEPLTHPTAAPKRTRDLLAGLSIAGLLLPEAVAYSSIAALPPQAGVIALFAGLLCYGLLGTSRFAIVSATSSSAAVLAAATLSLAGGDAQLRLSLAFALVLLTGVFFLLAGLFRLGGVTAFIAKPVLRGFAFGLALTIVLKQFATVVGVHLSTGNLVRFLPQLLEQWPQWNWAGAAVAAVALLVLGICSRIPYVPGGLVAVVIGIGAGQWFNLPAHGVDLIGVIELKLEVPSLPQLPFADWLRLGELAFALVMILYAESYGSISSFALKHGDRVSSNRDLLALGASNLLSGLFHGMPAGAGYSATSANEAAGARSRLAGLTAAAVMLLIVLTVLPYIALTPEPVLAAIVMYALGHGLSLQPLGRYFIWRRDRVLVICAVSAVLVLGVLDGLLLSVGISILLLLRQMSAADIQILGQLGSGHDFVDLSRHPQARQVPGVLILRPGEALFFANAERILGGALRLIRHVQAPIHSIILSLEESPDLDGTSIEALDEFFRQVSLEHKHLALARLKHEAKDALALLPSSREYQVLLSGTSVDDTLQESLRGWKAGAFSQA | failed |
| MATFSLGKHPHVELCDLLKLEGWSESGAQAKIAIAEGQVKVDGAVETRKRCKIVAGQTVSFAGHSVQVVA | not failed |
| MATGQDRVVALVDMDCFFVQVEQRQNPHLRNKPCAVVQYKSWKGGGIIAVSYEARAFGVTRSMWADDAKKLCPDLLLAQVRESRGKANLTKYREASVEVMEIMSRFAVIERASIDEAYVDLTSAVQERLQKLQGQPISADLLPSTYIEGLPQGPTTAEETVQKEGMRKQGLFQWLDSLQIDNLTSPDLQLTVGAVIVEEMRAAIERETGFQCSAGISHNKVLAKLACGLNKPNRQTLVSHGSVPQLFSQMPIRKIRSLGGKLGASVIEILGIEYMGELTQFTESQLQSHFGEKNGSWLYAMCRGIEHDPVKPRQLPKTIGCSKNFPGKTALATR | failed |
| MATIQAFWRFSRPHTIIGTTLSVWAVYLLTILGDGNSVNSPASLDLVFGAWLACLLGNVYIVGLNQLWDVDIDRINKPNLPLANGDFSIAQGRWIVGLCGVASLAIAWGLGLWLGLTVGISLIIGTAYSVPPVRLKRFSLLAALCILTVRGIVVNLGLFLFFRIGLGYPPTLITPIWVLTLFILVFTVAIAIFKDVPDMEGDRQFKIQTLTLQIGKQNVFRGTLILLTGCYLAMAIWGLWAAMPLNTAFLIVSHLCLLALLWWRSRDVHLESKTEIASFYQFIWKLFFLEYLLYPLALWLPNFSNTIF | failed |
| MATKHEQILTYIDSLPVGEKISVRRIAKEMKVSEGTAYRAIKEAENKGFVSTIERVGTIRIEQKKKENIEKLTYAEVVNVIDGQVLGGRAGLHKTLNKFVIGAMELDAMMRYTAAGNLLIVGNRINAHRQALEAGAAVLVTGGFNTDDSIVQLADELELPILSTSYDTFTVAAMINRAIYDQLIKKEIVLVEDILTPADRTVYLSPKDKLEKWYEKNFETGHGRFPVVDDQMKIHGILTSKDIAGHDRNASIEKVMTKNPVTVIGKTSVASAAQMMVWEGIEVLPVTDGHQKLIGMISRQDVLKALQMIQKQPQVGEKLDDIVSRGFKDEGDDKEDQTVYEYEVTPQMTNQLGTISYGVFTTILTQAANRFLRSKKRGELVIESITIFFLKPVQMESVIEVKPRILEAGRKFGKMEVEVHSQGHIVSKAMLMVQLMERS | failed |
| MATLPASKSASKVALTSEVEDEGIKEHTFQEIEKLQDLGINAADINKLKGSGYCTILSLIQTTKKELCNVKGISEAKVDKILEVASKIENCSSFITANELVQKRSKVLKITTGSTVFDQTLGGGIESMCITELFGENRCGKTQVCHTLAVTAQLPKSLNGGNGKVCYIDTEGTFRPEKVCKIAERYGLDGEAVLDNILYARAFTHEHLYQLLAISAAKMCEEPFALLVVDSIISLFRVDFSGRGELSERQQKLNKTMSILSKLSEQFNIAILITNQVMSDPGATMTFIANPMKPVGGHVIGHASTIRLSLRKGKGDQRVCKVYDAPNLPEVECIFQLSDKGVIDATD | failed |
| MATNLIGLDTTQSQKLANALNNLLANYQVFYMNTRGYHWNIQGKEFFELHAKFEEIYTDLQLKIDELAERILTLSARPMHSFSGYLKAAQIKEHTDSIDGRSSMQGLVDGFSILLHQQRDILELAGETGDEGTSALMSDYIREQEKLVWMLNAWLK | not failed |
| MATPTEHEDLSEQEVTEDEFKTPKIRETPEDIKLEAIVNTIAFHPKQDILAAGDIDGDIYLFSYSCTEGENKELWSSGHHLKSCRKVLFSSDGQKLFSVSKDKAIHIMDVEAGKLETRIPKAHKVPINAMLLIDENIFATGDDEGTLKVWDMRKGTSFMDLKHHEDYISDITIDQAKRTLLTSSGDGTLGVFNIKRRRFELLSEIQNGDLTSVSIMKRGRKVVCGSGEGTIYIFNWNGFGATSDRFAVQAESVDCIVPITDSILCAASTDGVIRAINILPNRVVGSIGQHVGEAIEEIARCRDTHFLASCAHDELIKFWDISSLPDEKVNDYRRRKKKDRRLKALSNKAFDTGQNFFAGLLDTTEENGKEGENDEDDDDEDSDSGSD | not failed |
| MATQYGALSYSSRTQSPARVMTRVMVEARRVLLGALATAAVVAFMSAVGWVALLALTVTIPFATIVVALAMAIRHFRQDRRALA | failed |
